Experimental data: US6613506B1, “Compositions and methods for inhibiting human immunodeficiency virus infection by down-regulating human cellular genes” (Subsidiary No. 3, Inc., priority 2000, dated 2003)

Key:
HIV-1SF2 = assay: Protection of GSE-transduced CEM-ss cells from HIV-1SF2 infection (intracellular p24); assay type: cell-based; settings: HIV-1SF2 at TCID50 of 1000, versus vector (LNGFRM) control
Excerpt: FIG. 2 illustrates the percentage of intracellular p24^+ CEM-ss cells containing the CF-315 sequence (SEQ ID NO:1) after infection with HIV-1SF2 at a TCID50 of 1000. CEM-ss cells (10^6) containing the C-315 construct or control vector DNA (denoted as LNGFRM) were harvested on the indicated days post infection, stained with FITC-conjugated anti-p24 monoclonal antibody and analyzed by flow cytometry. Mock infected cells, -⋄-; LNGFRM vector-infected cells, -[…]-; and C-315 infected cells, -Δ-.
FIG. 3 illustrates the percentage of intracellular p24^+ CEM-ss cells containing various GSEs: CF-004 (SEQ ID NO:7), CF-025 (SEQ ID NO:5), CF-113 (SEQ ID NO:8) and CF-204 (SEQ ID NO:9) after infection with HIV-1SF2 at a TCID50 of 1000. Controls include mock-infected, vector (LNGFRM)-infected and HIV-infected CEM-ss cells.
FIG. 4 illustrates the percentage of intracellular p24^+ CEM-ss cells containing CF-001 (SEQ ID NO:10) after infection with HIV-1SF2 at a TCID50 of 1000. Controls include mock-infected and vector (LNGFRM)-infected cells. […]
In order to determine p24 expression in HIV-infected cells, the cells were first washed twice with Assay Buffer. […] The cells were then washed twice with Wash Buffer and analyzed by flow cytometry. […]

HIV = assay: Selection of GSEs from RFE libraries using OM10.1 and CEM-ss cells (strategy not stated per GSE); assay type: cell-based, HIV-1; settings: GSEs matching NADH dehydrogenase subunit genes
Protocol: (§1) The libraries prepared from HL-60 cells according to the method of Section A of this Example, were transfected into the packaging cell line, PA317 (ATCC CRL #9078), and converted into retrovirus for infection of OM10.1 cells. Libraries in pLNCX vector were co-cultured and selected with G418. Libraries in pLNGFRM vector were transduced by spinoculation (centrifugation of target cells at 1200×g for 90 min. in the presence of filtered retroviral supernatant; Dunn et al., 1999, Gene Therapy 6: 133-137) and selected by FACS sorting of the NGFR^+ population. After selection, the OM10.1 cells harboring the entire RFE library were induced with 10 U/mL of TNF-α at 37EC, and 24 hours later, were stained with an antibody and sorted for CD4 expression. Genomic DNA from the CD4^+ cells was purified and used for PCR amplification of inserts with the vector-derived primers. The amplified mixture was digested with EcoRI and BamHI and cloned back into the retroviral vector. The selection was repeated for additional rounds.
Additionally, a normalized RFE library made from HeLa cells was transferred into CEM-ss cells and the neo resistant population was infected with TCID50 of 3000/10^6 cells of HIV-1IIIB. This RFE library was represented by 50×10^6 independent recombinant clones. Four and seven days after infection, a purified anti-CD4 monoclonal antibody, L77 (available from Becton Dickinson), was added at 5 Φg/mL to prevent syncytia formation. Syncytia formation is thought to be prevented by blocking the interaction between gp120 expressed on the surface of an infected cell and CD4 on the surface of an uninfected cell. […] At 10-12 days after infection, CD4^+, p24^− cell population representing uninfected cells were sorted. Genomic DNA from the CD4^+, p24^− cells was purified and used for PCR amplification of inserts with the vector-derived primers. The amplified mixture was digested with EcoRI and BamHI and cloned back into the retroviral vector. The selection was repeated for additional rounds.
One strategy selected for GSEs which suppressed productive infection of cells by HIV. The second strategy selected for GSEs which suppressed induction of the latent provirus in OM10.1 cells. When OM10.1 cells were treated with TNF-α and stained with an antibody specific for the cell surface molecule CD4, a rapid loss of CD4 expression was observed (FIG. 1). In contrast, the vast majority of the uninduced OM10.1 cells retained CD4 expression. It is believed that activation of the latent virus in OM10.1 cells by TNF-α leads to the production of viral protein gp120, which binds to cytoplasmic CD4, thereby preventing its translocation to the cell surface. A diminution of CD4^+ OM10.1 cells also correlates with an increased production of viral protein p24 in the cells following TNF-α induction.
GSEs derived from cDNAs representing expressed human cellular genes were identified and isolated from a RFE library made from HL-60 cells using HIV provirus activation in OM10.1 cells as a read-out. Following transfection of the entire library into a packaging cell line, retrovirus carrying the library was used to infect OM10.1 cells by co-cultivation or spinoculation, and NGFR selection was performed to ensure the retention of the viral vector. When the infected cells were treated with TNF-α a small number of residual CD4^+ cells were detected by an anti-CD4 antibody and sorted by FACS. The GSEs contained in these cells were recovered by PCR amplification and their nucleotide sequences determined.
A total of twenty GSEs were isolated by the two aforementioned selection strategies using OM10.1 and CEM-ss cells. […] CF-315 was further shown to protect uninfected human T cells from a productive HIV-1 infection (FIG. 2). In this experiment, the retroviral vector, pLNGFRM, containing the CF-315 nucleic acid molecule was transferred into CEM-ss cells followed by NGFR selection. Vector containing plasmid DNA (denoted LNGFRM) was used as negative control. […]

[1] = test system: latent HIV-1 provirus in OM10.1 cells; assay: Selection of GSEs in OM10.1 cells (TNF-α induction of latent provirus, CD4+ sorting); assay type: cell-based
Protocol: as §1, with “The amplified mixture was digested with EcoRI and BamHI and cloned back into the retroviral vector. The selection was repeated for additional rounds.” left out
GSEs derived from cDNAs representing expressed human cellular genes were identified and isolated from a RFE library made from HL-60 cells using HIV provirus activation in OM10.1 cells as a read-out. […] When the infected cells were treated with TNF-α a small number of residual CD4^+ cells were detected by an anti-CD4 antibody and sorted by FACS. The GSEs contained in these cells were recovered by PCR amplification and their nucleotide sequences determined.

B1: CF-315: GSE, SEQ ID NO:1, antisense; NADH dehydrogenase ND6 subunit gene (nucleic acid, listed as Homo sapiens)
antisense: AGATCCTATTGGTGCGTGGGCTTTGTATGATTATGGGCGTAGATTAGTAGTAGTTACTGGTTGAACATTGTTTGTTGGTGTATATATTGTAATTGGGATTGCTCGGGGGAATAGGTTATGTGATTAGGAGTAGGG
inhibition of productive HIV infection (intracellular p24+ cells) (HIV-1SF2): inhibited infection of human T cells by HIV-1SF2 | HIV-suppressive activity of the GSE and active orientation (HIV): suppresses HIV replication as an antisense molecule

B2: CF-061: GSE, SEQ ID NO:19; portion of an unknown human cellular gene (nucleic acid, listed as Homo sapiens)
DNA: ACACACAGACACACAGACACAGAGAGACACACAGACACACACACAGAGATACACAGAGACACAGACACAGAAACACTCTGAGAGACACACACACAGAGACACACAGACACACAGACACAGAGAGACACACAGACACACACACACAGAGATACACAGAGACACAGACACAGAAA
selection of the GSE [1]: selected in OM10.1 cells
